Experiments:
[1] = target: Leukine (commercial rhGM-CSF of Schering AG, expressed in yeast) (human) (UniProt P04141); assay: cell-based or functional assay
[2] = target: rhGM-CSF expressed in NM-F9 cells cultured with 90 mM ManNAc (optimal sialylation form of rhGM-CSF) (human) (UniProt P04141); assay: cell-based or functional assay

- stimulation of TF-1 cell proliferation (BrdU-proliferation assay), blocking at 5 µg/ml antibody [1]: 60%
- stimulation of TF-1 cell proliferation (BrdU-proliferation assay), blocking at 5 µg/ml antibody [2]: 60%
Substance: anti-human GM-CSF antibody BVD2-23 B6
